Measured values from patent US20190233498A1 (H LUNDBECK A S, published 2019).

T1: human PACAP38 (human, not fully specified; C-terminal lysine is amidated; N-terminal or C-terminal biotin in the HTRF and PC-12 cell binding assays)
T1 construct: synthetic peptide, bought; also called huPACAP (1-38)
T1 peptide: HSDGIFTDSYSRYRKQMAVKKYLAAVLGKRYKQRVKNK

T2: human PACAP27 (human, C-terminal leucine is amidated; 125I-labelled in Example 10)
T2 peptide: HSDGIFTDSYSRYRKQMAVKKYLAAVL

T3: human VIP (human)
T3 construct: also called Vasoactive Intestinal Peptide
T3 peptide: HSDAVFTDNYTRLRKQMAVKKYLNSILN


Tests used:
human PACAP38 [1] = molecular target: T1, human PACAP38; assay: HTRF binding, biotin-PACAP38
Experimental: In parallel, 10 μl of an antibody dilution series (highest final concentration of 100 nM) were incubated with 10 μl of N-terminal or C-terminal biotinylated PACAP38 (35 nM final) alone, or in combination with either PACAP27 (350 nM final) or VIP (350 nM final), i.e., 10× PACAP27 or 10×VIP, respectively, in a HTRF plate. 20 μl of Eu³⁺ cryptate labeled anti-hu Fc donor and 20 μl of d2-labeled streptavidin acceptor were added to each well and incubated for 1 hour at room temperature. Fluorescence was measured at 620 and 665 nm with a delay of 300 μsec.
EC₅₀ values, i.e. the concentration of an antibody that yields a response halfway between the baseline and the maximum value within a specified time period, were computed for each antibody based upon their binding curves and are shown in Table 1 below. […] A humanized form of antibody Ab1 was produced and is identified by an appended “.H”, i.e., Ab1.H, and it also bound PACAP38 with high affinity.

human PACAP38 [2] = molecular target: T1, human PACAP38; assay: inhibition of 100 nM biotin-PACAP38 binding to PC-12 cells, TRF
Experimental: To identify antibodies that block PACAP38 binding to PAC1-R-expressing cells, adherent PC-12 cells (ATCC, Manassas, Va.) expressing PAC1-R were used in a Europium-based PAC1-R expressing cells binding assay.
Antibody solutions were incubated with N-terminal biotinylated PACAP38 at 10× the final concentration (100 nM or 30 nM) for 1 hr, then added to PC-12 cells that were plated 24 hrs. prior in black clear bottom 96 well plates (COSTAR™, Corning Incorporated, Corning, N.Y.) and further incubated for 1 hr at room temperature. After three washes, the cells were incubated with 20 μl Europium-labeled streptavidin (PerkinElmer, Waltham, Mass.) for 1 hr at room temperature. Cells were washed three times, then 20 μl DELFIA® Enhancement solution (PerkinElmer, Waltham, Mass.) was added to each well and incubated for 15 minutes with gentle shaking. Plates were read (Time Resolved Fluorescence (“TRF”)) on SPECTRAMAX® (Molecular Devices, Sunnyvale, Calif.) plate reader.
FIGS. 14A-14BB are representative of the inhibition curves obtained by this method (results are shown for Ab1, Ab2, Ab3, Ab4, Ab5, Ab6, Ab7, Ab8, Ab9, Ab10, Ab11, Ab12, Ab13, Ab14, Ab15, Ab16, Ab17, Ab18, Ab19, Ab1.H, Ab10.H, Ab22, Ab23, Ab3.H, Ab4.H, Ab5.H, Ab9.H, and Ab12.H, respectively) wherein the PAC1-R expressing cells were PC-12 cells.

human PACAP38 [3] = molecular target: T1, human PACAP38; assay: cell-based or functional assay
human PACAP38 [4] = molecular target: T1, human PACAP38; assay: cell-based or functional assay
human PACAP27 [5] = molecular target: T2, human PACAP27; assay: cell-based or functional assay
human PACAP38 [6] = molecular target: T1, human PACAP38; assay: SPR, Ab immobilised
Experimental: (§1) Binding affinities of monoclonal antibodies for human PACAP were estimated using SPR on the PROTEON™ XPR36 (Bio-Rad, Hercules, Calif.). Antibody was immobilized to the surface of general amine coupling (“GLC” or “GLM”) Chips (Bio-Rad, Hercules, Calif.). A dilution series of human PACAP38 (SEQ ID NO: 1241) prepared in 1×PBST Buffer (4.3 mM Na Phosphate, 1.4 mM K Phosphate, 135 mM NaCl, 2.7 mM KCl 0.05% Polysorbate-20) purchased from Teknova (Cat# P1192, Teknova, Hollister, Calif.) and supplemented with 0.25 M arginine (from J.T. BAKER®), 0.2 mg/ml BSA (Jackson Immuno Research Labs, West Grove, Pa.), and 0.005% sodium azide (VWR International, Radnor, Pa.) with the pH adjusted to 7 was used to query the antibodies. Antigen (ranging from 1.23 nM to 100 nM) was typically run sequentially with association times of 2-4 minutes and dissociation times of 3-120 minutes grouped with the PROTEON™ Manager Software (v3.1.0.6 (Bio-Rad, Hercules, Calif.)) and fitted using a 1:1 Langmuir binding model. Surfaces were regenerated between analyte queries using 0.85% Phosphoric Acid.

human PACAP27 [7] = molecular target: T2, human PACAP27; assay: SPR, Ab immobilised
Experimental: [The procedure below names another target; the source says it served here with some conditions changed.] as §1

human VIP = molecular target: T3, human VIP; assay: SPR, Ab immobilised
Experimental: [The procedure below names another target; the source says it served here with some conditions changed.] as §1

human PACAP38 [8] = molecular target: T1, human PACAP38; assay: cell-based or functional assay

Binder | EC50 (human PACAP38 [1]) | IC50 (human PACAP38 [2]) | IC50, 1 nM PACAP38-induced human VPAC2-R mediated cAMP increase (human PACAP38 [3]) | IC50, 0.1 nM PACAP38-induced PAC1-R mediated cAMP increase (human PACAP38 [4]) | IC50, 0.1 nM PACAP27-induced PAC1-R mediated cAMP increase (human PACAP27 [5]) | Kd (human PACAP38 [6]) | koff (human PACAP38 [6]) | kon (human PACAP38 [6]) | Kd (human PACAP27 [7]) | koff (human PACAP27 [7]) | kon (human PACAP27 [7]) | Kd (human VIP) | koff (human VIP) | IC50, 5 nM PACAP38-induced human VPAC1-R mediated cAMP increase (human PACAP38 [8]) | kon (human VIP)
anti-PACAP antibody Ab3 (antibody, human IgG1, kappa, N297A, V domains shown, full-length rabbit/human chimeric antibody) VH: QEQLVESGGGLVQPEGSLTLTCTASGFSFSSSDYMCWVRQAPGKGLEWIGCIDAGSSGDTYFASWAKGRFTISKTSSTTVTLQMTSLTAADTATYFCARHLYGSITFAFGLWGQGTLVTVSS VL: AAVLTQTPSPVSAAVGGTVTINCQASQSIGSDLAWYQQKPGQPPKLLIYDASTLASGVPSRFSGSGSGTQFTLTISGVQCDDAATYYCQGTYYSSGWYTAFGGGTEVVVKR | 0.00045 µM | 0.0172 µM | 0.000667 µM | 0.227 nM | 0.09 nM | 0.16 nM | 4.2e-05 s⁻¹ | 260000 M⁻¹ s⁻¹ | 0.37 nM | 0.00014 s⁻¹ | 370000 M⁻¹ s⁻¹ | 100000 µM | 0.1 s⁻¹ | 0.00174 µM | –
anti-PACAP antibody Ab13 (antibody, human IgG1, kappa, N297A, V domains shown, full-length rabbit/human chimeric antibody) VH: QSVEESGGRLVTPGTPLTLTCTVSGFSLSSAAMNWVRQAPGKGLEWIGIIDNTAGTYYAPWAKGRFTISKTSSTTVDLKMTSPTTEDTATYFCARGGGEFFIWGPGTLVTVSS VL: AQVLTQTPSSVSAAVGGTVTINCQSSQSVHDGSYLSWYQQKPGQPPNFLIYQASNLASGVPSRFKGSGSGTQFTLTISDLECDDAATYYCAGGYSSNICGFGGGTEVVVKR | 0.00048 µM | 0.0531 µM | 0.000652 µM | 0.0824 nM | 0.0741 nM | 0.064 nM | 2.7e-05 s⁻¹ | 420000 M⁻¹ s⁻¹ | 0.12 nM | 6.6e-05 s⁻¹ | 540000 M⁻¹ s⁻¹ | 0.14 µM | 0.046 s⁻¹ | 0.00218 µM | 320000 M⁻¹ s⁻¹
anti-PACAP antibody Ab10.H (antibody, V domains shown) VH: EVQLVESGGGLVQPGGSLRLSCAASGIDLNSYYMTWVRQAPGKGLEWIGFIDAGGDAYYASWAKGRFTISRDNSKNTVYLQMNSLRAEDTAVYFCARDLDLWGQGTLVTVSS VL: DAQLTQSPSTLSASVGDRVTITCQSSESVYGNYLAWFQQKPGKAPKFLIYEASKLESGVPSRFSGSGSGTEFTLTISSLQPDDFATYYCAGGDISEGVAFGGGTKVEIKR | – | – | – | – | – | 0.029 nM | 1e-05 s⁻¹ | – | – | – | – | – | – | – | –
anti-PACAP antibody Ab10 (antibody, V domains shown) VH: QSVEESGGRLVTPGTPLTLTCTVSGIDLNSYYMTWVRQAPGKGLEWIGFIDAGGDAYYASWAKGRFTISKTSTTVDLKITSPTTEDTATYFCARDLDLWGQGTLVTVSS VL: AAVLTQTPSPVSAAVGGTVTINCQSSESVYGNYLAWFQQKPGQPPKLLIYEASKLESGVPSRFSGSGSGTQFTLTISDLQCDDAATYYCAGGDISEGVAFGGGTEVVVKR | – | – | – | – | – | – | – | – | 0.01 nM | 1e-05 s⁻¹ | – | – | – | – | –
